Patent US20110166062A1 (INDIANA UNIVERSITY RESEARCH AND TECHNOLOGY, published 2011)
Bridges are numbered along the chain shown (N, C = ends). Where no end group is shown, it is not given here. [ ]: non-standard residue; d: D form. Aib = CC(C)(N)C(=O)O

T1: GIP receptor (UniProt P48546 22-466)
T1 sequence (looked up): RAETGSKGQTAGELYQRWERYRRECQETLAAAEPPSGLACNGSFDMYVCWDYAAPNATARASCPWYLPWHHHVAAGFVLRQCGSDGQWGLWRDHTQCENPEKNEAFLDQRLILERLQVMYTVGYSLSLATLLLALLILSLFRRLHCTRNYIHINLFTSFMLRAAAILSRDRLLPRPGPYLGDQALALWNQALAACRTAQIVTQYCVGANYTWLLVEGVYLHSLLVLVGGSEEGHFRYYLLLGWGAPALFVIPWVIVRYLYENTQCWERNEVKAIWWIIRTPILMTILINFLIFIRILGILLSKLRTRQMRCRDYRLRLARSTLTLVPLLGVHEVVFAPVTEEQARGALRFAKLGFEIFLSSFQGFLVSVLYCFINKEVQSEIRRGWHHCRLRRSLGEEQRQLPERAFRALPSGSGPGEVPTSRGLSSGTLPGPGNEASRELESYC

B1: mt-93 (peptide)
peptide: HSQGTFTSDYSIYLDEKHQKEFIAWLLAQ-NH2
modifications: lactam 16-20, 17-21; N-terminus assumed
SMILES: CC[C@H](C)[C@H](NC(=O)[C@H](Cc1ccccc1)NC(=O)[C@@H]1CCC(=O)NCCCC[C@@H]2NC(=O)[C@@H](NC(=O)[C@H](CC(=O)O)NC(=O)[C@H](CC(C)C)NC(=O)[C@H](Cc3ccc(O)cc3)NC(=O)[C@@H](NC(=O)[C@H](CO)NC(=O)[C@H](Cc3ccc(O)cc3)NC(=O)[C@H](CC(=O)O)NC(=O)[C@H](CO)NC(=O)[C@@H](NC(=O)[C@H](Cc3ccccc3)NC(=O)[C@@H](NC(=O)CNC(=O)[C@H](CCC(N)=O)NC(=O)[C@H](CO)NC(=O)[C@@H](N)Cc3c[nH]cn3)[C@@H](C)O)[C@@H](C)O)[C@@H](C)CC)CCC(=O)NCCCC[C@H](NC(=O)[C@H](CCC(N)=O)NC(=O)[C@H](Cc3c[nH]cn3)NC2=O)C(=O)N1)C(=O)N[C@@H](C)C(=O)N[C@@H](Cc1c[nH]c2ccccc12)C(=O)N[C@@H](CC(C)C)C(=O)N[C@@H](CC(C)C)C(=O)N[C@@H](C)C(=O)N[C@@H](CCC(N)=O)C(N)=O
B2: mt-155 (peptide)
peptide: YSQGTFTSDYSKYLDEQAAKEFVNWLLAGGPSSGAPPPS-NH2
modifications: lactam 12-16; N-terminus assumed
SMILES: CC(C)C[C@H](NC(=O)[C@H](CC(C)C)NC(=O)[C@H](Cc1c[nH]c2ccccc12)NC(=O)[C@H](CC(N)=O)NC(=O)[C@@H](NC(=O)[C@H](Cc1ccccc1)NC(=O)[C@H](CCC(=O)O)NC(=O)[C@H](CCCCN)NC(=O)[C@H](C)NC(=O)[C@H](C)NC(=O)[C@H](CCC(N)=O)NC(=O)[C@@H]1CCC(=O)NCCCC[C@H](NC(=O)[C@H](CO)NC(=O)[C@H](Cc2ccc(O)cc2)NC(=O)[C@H](CC(=O)O)NC(=O)[C@H](CO)NC(=O)[C@@H](NC(=O)[C@H](Cc2ccccc2)NC(=O)[C@@H](NC(=O)CNC(=O)[C@H](CCC(N)=O)NC(=O)[C@H](CO)NC(=O)[C@@H](N)Cc2ccc(O)cc2)[C@@H](C)O)[C@@H](C)O)C(=O)N[C@@H](Cc2ccc(O)cc2)C(=O)N[C@@H](CC(C)C)C(=O)N[C@@H](CC(=O)O)C(=O)N1)C(C)C)C(=O)N[C@@H](C)C(=O)NCC(=O)NCC(=O)N1CCC[C@H]1C(=O)N[C@@H](CO)C(=O)N[C@@H](CO)C(=O)NCC(=O)N[C@@H](C)C(=O)N1CCC[C@H]1C(=O)N1CCC[C@H]1C(=O)N1CCC[C@H]1C(=O)N[C@@H](CO)C(N)=O
B3: mt-106 (peptide)
peptide: YAEGTFISDYSIAMDKIHQQDFVNWLLAQ-NH2
B4: mt-146 (peptide)
peptide: YAQGTFISDYSKYLDEQAAKEFVNWLLAGGPSSGAPPPS-NH2
modifications: lactam 16-20; N-terminus assumed
SMILES: CC[C@H](C)[C@H](NC(=O)[C@H](Cc1ccccc1)NC(=O)[C@@H](NC(=O)CNC(=O)[C@H](CCC(N)=O)NC(=O)[C@H](C)NC(=O)[C@@H](N)Cc1ccc(O)cc1)[C@@H](C)O)C(=O)N[C@@H](CO)C(=O)N[C@@H](CC(=O)O)C(=O)N[C@@H](Cc1ccc(O)cc1)C(=O)N[C@@H](CO)C(=O)N[C@@H](CCCCN)C(=O)N[C@@H](Cc1ccc(O)cc1)C(=O)N[C@@H](CC(C)C)C(=O)N[C@@H](CC(=O)O)C(=O)N[C@H]1CCC(=O)NCCCC[C@@H](C(=O)N[C@@H](CCC(=O)O)C(=O)N[C@@H](Cc2ccccc2)C(=O)N[C@H](C(=O)N[C@@H](CC(N)=O)C(=O)N[C@@H](Cc2c[nH]c3ccccc23)C(=O)N[C@@H](CC(C)C)C(=O)N[C@@H](CC(C)C)C(=O)N[C@@H](C)C(=O)NCC(=O)NCC(=O)N2CCC[C@H]2C(=O)N[C@@H](CO)C(=O)N[C@@H](CO)C(=O)NCC(=O)N[C@@H](C)C(=O)N2CCC[C@H]2C(=O)N2CCC[C@H]2C(=O)N2CCC[C@H]2C(=O)N[C@@H](CO)C(N)=O)C(C)C)NC(=O)[C@H](C)NC(=O)[C@H](C)NC(=O)[C@H](CCC(N)=O)NC1=O
B5: mt-151 (peptide)
peptide: YSQGTFTSDYSKYLDEQAAKEFIAWLLAGGPSSGAPPPS-NH2
modifications: lactam 16-20; N-terminus assumed
SMILES: CC[C@H](C)[C@H](NC(=O)[C@H](Cc1ccccc1)NC(=O)[C@H](CCC(=O)O)NC(=O)[C@@H]1CCCCNC(=O)CC[C@H](NC(=O)[C@H](CC(=O)O)NC(=O)[C@H](CC(C)C)NC(=O)[C@H](Cc2ccc(O)cc2)NC(=O)[C@H](CCCCN)NC(=O)[C@H](CO)NC(=O)[C@H](Cc2ccc(O)cc2)NC(=O)[C@H](CC(=O)O)NC(=O)[C@H](CO)NC(=O)[C@@H](NC(=O)[C@H](Cc2ccccc2)NC(=O)[C@@H](NC(=O)CNC(=O)[C@H](CCC(N)=O)NC(=O)[C@H](CO)NC(=O)[C@@H](N)Cc2ccc(O)cc2)[C@@H](C)O)[C@@H](C)O)C(=O)N[C@@H](CCC(N)=O)C(=O)N[C@@H](C)C(=O)N[C@@H](C)C(=O)N1)C(=O)N[C@@H](C)C(=O)N[C@@H](Cc1c[nH]c2ccccc12)C(=O)N[C@@H](CC(C)C)C(=O)N[C@@H](CC(C)C)C(=O)N[C@@H](C)C(=O)NCC(=O)NCC(=O)N1CCC[C@H]1C(=O)N[C@@H](CO)C(=O)N[C@@H](CO)C(=O)NCC(=O)N[C@@H](C)C(=O)N1CCC[C@H]1C(=O)N1CCC[C@H]1C(=O)N1CCC[C@H]1C(=O)N[C@@H](CO)C(N)=O
B6: mt-102 (peptide)
peptide: Y[Aib]EGTFISDYSIAMDKIHQQDFVCWLLAQKGKKNWLKHNITQ-NH2
B7: mt-66 (peptide)
peptide: HSQGTFTSDYSKYLDEIHQKEFIAWLLAQ-NH2

target: GLP-1 receptor (UniProt P43220 24-463, limits assumed); assay: cell-based or functional assay

| Binder | EC50 | relative activity |
| --- | --- | --- |
| B1 | 0.04 nM | – |
| B2 | 0.025 nM | – |
| B3 | 264 nM | 0.02% |
| B4 | 13.1 nM | – |
| B5 | 0.126 nM | – |
| B6 | 98.4 nM | 0.06% |
| B7 | 0.13 nM | 38.5% |

target: T1, GIP receptor; assay: cell-based or functional assay

| Binder | EC50 |
| --- | --- |
| B2 | 0.665 nM |
| B4 | 0.391 nM |
| B5 | 0.852 nM |

target: glucagon receptor (UniProt P47871 26-477, limits assumed); assay: cell-based or functional assay
Sequence (P47871 26-477 limits assumed): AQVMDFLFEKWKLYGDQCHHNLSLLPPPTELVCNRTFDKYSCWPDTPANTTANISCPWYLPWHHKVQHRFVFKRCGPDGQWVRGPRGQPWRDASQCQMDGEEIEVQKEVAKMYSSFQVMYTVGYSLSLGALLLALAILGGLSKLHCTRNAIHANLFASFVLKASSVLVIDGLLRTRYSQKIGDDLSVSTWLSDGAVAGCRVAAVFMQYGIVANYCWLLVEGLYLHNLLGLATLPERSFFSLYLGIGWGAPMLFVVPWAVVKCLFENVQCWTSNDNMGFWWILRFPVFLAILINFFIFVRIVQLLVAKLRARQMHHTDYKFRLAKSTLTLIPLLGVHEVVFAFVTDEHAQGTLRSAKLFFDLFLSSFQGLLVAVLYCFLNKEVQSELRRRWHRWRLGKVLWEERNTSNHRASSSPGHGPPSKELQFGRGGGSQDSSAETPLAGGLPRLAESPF

| Binder | EC50 | relative activity |
| --- | --- | --- |
| B1 | 3 nM | – |
| B3 | 165 nM | 0.11% |
| B6 | 799 nM | 0.02% |
| B7 | 2 nM | 13% |
